From US20040023916A1 (NATIONAL INSTITUTES OF HEALTH NIH, published 2004)

Molecular target: T1, mouse Plasma Cell Membrane Glycoprotein-1 (PC-1) (mouse, UniProt P06802 1-906, limits assumed)
T1 construct: Measured as NTPPPH activity, which in these cells also includes the isozyme B10; also called Enpp1; NPP1
T1 sequence (looked up): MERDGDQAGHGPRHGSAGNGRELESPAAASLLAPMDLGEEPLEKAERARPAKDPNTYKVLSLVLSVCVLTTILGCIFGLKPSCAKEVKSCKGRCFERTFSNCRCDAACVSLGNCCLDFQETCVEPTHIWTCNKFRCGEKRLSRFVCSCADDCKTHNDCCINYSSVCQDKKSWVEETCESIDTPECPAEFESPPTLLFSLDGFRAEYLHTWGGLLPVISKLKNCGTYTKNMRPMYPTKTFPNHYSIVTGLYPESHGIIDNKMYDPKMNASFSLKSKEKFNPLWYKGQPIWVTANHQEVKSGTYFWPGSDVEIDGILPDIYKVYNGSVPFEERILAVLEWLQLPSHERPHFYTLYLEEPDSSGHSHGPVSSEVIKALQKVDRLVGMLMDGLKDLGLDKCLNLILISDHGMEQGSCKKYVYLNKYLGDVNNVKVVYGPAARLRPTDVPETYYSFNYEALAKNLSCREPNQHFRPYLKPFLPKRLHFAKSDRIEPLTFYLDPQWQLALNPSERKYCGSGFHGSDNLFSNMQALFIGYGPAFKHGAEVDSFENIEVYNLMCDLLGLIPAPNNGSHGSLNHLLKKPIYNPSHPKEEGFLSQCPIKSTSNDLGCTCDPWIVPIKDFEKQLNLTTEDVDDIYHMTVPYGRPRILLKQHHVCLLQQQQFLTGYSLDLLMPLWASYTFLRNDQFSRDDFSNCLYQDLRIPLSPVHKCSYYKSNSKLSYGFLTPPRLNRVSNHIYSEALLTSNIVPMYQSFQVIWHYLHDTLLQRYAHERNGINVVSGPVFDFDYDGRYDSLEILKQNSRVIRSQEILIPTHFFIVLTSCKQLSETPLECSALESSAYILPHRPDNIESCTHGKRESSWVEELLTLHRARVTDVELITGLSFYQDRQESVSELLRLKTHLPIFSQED
Assay: co-immunoprecipitation from osteoblast cell lysates, enzyme activity on beads
Description: Paradoxically, transfection of wild-type TNAP was associated with a significant increase in cell-associated NTPPPH, and an even greater increase in MV fraction-associated NTPPPH activity in MC3T3 cells, but no significant change in activity of transglutaminase activity, which served as a control enzyme for these experiments. […] Specifically, immunoprecipitation of TNAP from osteoblast cell lysates isolated >85% of the TNAP activity, but was not associated with any co-immunoprecipitation of NTPPPH activity (starting mean cell lysate NTPPPH 1.7 Units, and alkaline phosphatase 4.3 Units; beads after immunoprecipitation with antibody to TNAP had mean of 0.09 Units NTPPPH and 4.1 Units alkaline phosphatase; beads after immunoprecipitation with antibody to PC-1 had mean of 1.3 Units NTPPPH and 0.11 Units alkaline phosphatase, n=5).

binding result: no binding
B1: mouse tissue-nonspecific alkaline phosphatase (TNAP) (enzyme, UniProt P09242 18-501, looked up)
chain: FVPEKERDPSYWRQQAQETLKNALKLQKLNTNVAKNVIMFLGDGMGVSTVTAARILKGQLHHNTGEETRLEMDKFPFVALSKTYNTNAQVPDSAGTATAYLCGVKANEGTVGVSAATERTRCNTTQGNEVTSILRWAKDAGKSVGIVTTTRVNHATPSAAYAHSADRDWYSDNEMPPEALSQGCKDIAYQLMHNIKDIDVIMGGGRKYMYPKNRTDVEYELDEKARGTRLDGLDLISIWKSFKPRHKHSHYVWNRTELLALDPSRVDYLLGLFEPGDMQYELNRNNLTDPSLSEMVEVALRILTKNLKGFFLLVEGGRIDHGHHEGKAKQALHEAVEMDQAIGKAGAMTSQKDTLTVVTADHSHVFTFGGYTPRGNSIFGLAPMVSDTDKKPFTAILYGNGPGYKVVDGERENVSMVDYAHNNYQAQSAVPLRHETHGGEDVAVFAKGPMAHLLHGVHEQNYIPHVMAYASCIGANLDHCAWAG
notes: The lysates are called only 'osteoblast cell lysates'; Some MC3T3 cells were transfected with human TNAP, so the species in this experiment is not certain; also called Akp2
